Data on one molecule can be found in patent US20260034234A1 (AGENSYS, published 2026).

Assay [1] deals with T1, 191P4D12 (human, wild type, on cells) (human, UniProt Q96NY8 32-510).
T1 construct: 510 amino acid ORF expressed on PC3, RAT/Rat1(E) cells and present in cancer cell lines and tumor specimens; also called human 191P4D12; wild-type 191P4D12
T1 sequence: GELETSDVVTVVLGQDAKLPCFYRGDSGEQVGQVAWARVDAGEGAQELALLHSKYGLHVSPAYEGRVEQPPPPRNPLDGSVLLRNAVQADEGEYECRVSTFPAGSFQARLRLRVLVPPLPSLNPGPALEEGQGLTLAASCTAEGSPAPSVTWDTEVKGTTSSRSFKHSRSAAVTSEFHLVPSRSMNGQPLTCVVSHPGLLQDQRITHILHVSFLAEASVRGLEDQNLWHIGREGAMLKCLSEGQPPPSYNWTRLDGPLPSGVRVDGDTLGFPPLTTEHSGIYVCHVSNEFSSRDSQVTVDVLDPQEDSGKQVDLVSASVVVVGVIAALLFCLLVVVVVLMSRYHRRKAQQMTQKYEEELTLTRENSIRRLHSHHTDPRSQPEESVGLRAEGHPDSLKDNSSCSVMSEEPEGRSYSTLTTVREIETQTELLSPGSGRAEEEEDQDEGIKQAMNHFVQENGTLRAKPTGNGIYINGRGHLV
The assay can be described thus: FACS on PC3-191P4D12 cells. The text has this: (§1) The 191P4D12 protein of human, cynomolgus, rat and murine origin was overexpressed recombinantly in a PC3 cell line to determine cross-reactivity of Ha22-2(2,4)6.1 to these orthologs. It was shown that Ha22-2(2,4)6.1 strongly cross-reacts with cynomolgus and rat orthologs of 191P4D12 (FIG. 23).

In assay [2] the target is T2, Rat 191P4D12 (on PC3 cells) (rat, UniProt D3ZET1 31-509).
T2 construct: whole, on cells; also called PC3-rat-191P4D12; Rat ortholog
T2 sequence: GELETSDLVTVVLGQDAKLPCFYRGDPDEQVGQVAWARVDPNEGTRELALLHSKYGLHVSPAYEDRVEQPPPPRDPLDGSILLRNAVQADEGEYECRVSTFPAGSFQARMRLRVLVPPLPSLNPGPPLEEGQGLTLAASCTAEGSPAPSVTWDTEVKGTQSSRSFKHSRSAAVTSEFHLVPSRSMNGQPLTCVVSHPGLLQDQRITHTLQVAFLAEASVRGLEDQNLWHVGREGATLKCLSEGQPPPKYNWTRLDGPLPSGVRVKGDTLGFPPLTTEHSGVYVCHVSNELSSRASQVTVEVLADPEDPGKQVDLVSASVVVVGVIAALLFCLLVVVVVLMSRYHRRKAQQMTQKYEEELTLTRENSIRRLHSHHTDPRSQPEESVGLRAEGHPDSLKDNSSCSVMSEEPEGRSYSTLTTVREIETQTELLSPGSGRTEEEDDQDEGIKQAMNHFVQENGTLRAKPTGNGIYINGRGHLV
The assay can be described thus: FACS on PC3 cells expressing the rat ortholog.
Text: as §1

The target in assay [3] is T3, Murine ortholog of 191P4D12, wild type (on PC3 cells) (mouse, UniProt Q8R007 31-508).
T3 construct: whole, on cells; also called mouse 191P4D12
T3 sequence (looked up): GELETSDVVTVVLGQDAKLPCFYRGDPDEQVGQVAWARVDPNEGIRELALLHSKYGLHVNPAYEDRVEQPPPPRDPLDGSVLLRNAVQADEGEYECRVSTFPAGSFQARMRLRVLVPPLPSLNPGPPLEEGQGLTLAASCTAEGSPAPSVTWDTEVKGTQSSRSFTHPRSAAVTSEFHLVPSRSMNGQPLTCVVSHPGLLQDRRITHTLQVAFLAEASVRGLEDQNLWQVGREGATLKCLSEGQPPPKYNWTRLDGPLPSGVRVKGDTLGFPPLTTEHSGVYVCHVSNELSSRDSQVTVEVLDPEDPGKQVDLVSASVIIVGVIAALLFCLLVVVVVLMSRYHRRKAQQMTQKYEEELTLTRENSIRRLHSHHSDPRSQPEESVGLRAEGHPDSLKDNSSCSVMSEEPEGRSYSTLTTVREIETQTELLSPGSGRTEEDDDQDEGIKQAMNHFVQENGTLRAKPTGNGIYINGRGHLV
Nature of the assay: FACS on PC3 cells expressing the murine ortholog.
Text: as §1

The target in assay [4] is T2, Rat 191P4D12 (on PC3 cells). Nature of the assay: FACS titration on PC3 cells expressing the rat ortholog.
Assay [5] concerns the target Murine ortholog of 191P4D12, N90S, I75A double mutant (on PC3 cells) (mouse) (UniProt Q8R007). Nature of the assay: FACS titration of Ha22-2(2,4)6.1 on PC3 cells expressing mouse 191P4D12 I75A,N90S.
In assay [6] the target is T4, Murine ortholog of 191P4D12, N90S mutant (on PC3 cells) (mouse, UniProt Q8R007 31-508).
T4 construct: whole, on cells; also called murine mutant ortholog
T4 sequence (looked up): T3 sequence (looked up) with N60S
The assay can be described thus: FACS titration of Ha22-2(2,4)6.1 on PC3 cells expressing mouse 191P4D12 N90S.

Where a chain is given by its changes, count along the chain named.

B1: Ha22-2(2,4)6.1 MAb (antibody, human IgG1, kappa, V domains shown)
VH: EVQLVESGGGLVQPGGSLRLSCAASGFTFSSYNMNWVRQAPGKGLEWVSYISSSSSTIYYADSVKGRFTISRDNAKNSLSLQMNSLRDEDTAVYYCARAYYYGMDVWGQGTTVTVSS
VL: DIQMTQSPSSVSASVGDRVTITCRASQGISGWLAWYQQKPGKAPKFLIYAASTLQSGVPSRFSGSGSGTDFTLTISSLQPEDFATYYCQQANSFPPTFGGGTKVEIKR
notes: Fully human IgG1 kappa from XenoMouse; Used biotinylated in the Western blot; also called 191P4D12 MAb Ha22-2(2,4)6.1; Ha22-(2,4)6.1 MAb
For the molecule B1, the EC50 (in general, the concentration that produces a half-maximal response) in assay [1] came to 0.28 nM; in assay [2] it was 0.44 nM; in assay [3], 70.3 nM. Moreover, the EC50 (read off the curve) (commonly the concentration that produces a half-maximal response) was ~0.3 nM in assay [4], 0.5 nM in assay [5] and ~0.4 nM in assay [6].
